In the supplement of paper PMC10567573 one finds protein stability index data, which are given here for 94 variants.

B1: PLAGL1 (parent)
chain: TKEKKHQCDHCERCFYTRKDVRRH
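Further: lentivirally expressed fusions sorted by FACS into six bins by GFP to DsRed ratio, PSI derived from sequencing read proportions per bin multiplied by bin number.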

The variants in this data set derive from B1. Put plainly: protein stability index of a GFP-peptide fusion (GPS, HEK-293T) (PSI 1-6); higher = more stable. The note with it: c terminus: a fixed tail appended.
Take TKEKKHQCGHCERCFYTRKDVRRH [D9G]: the protein stability index worked out at 3.66.

TKEKKHQCRHCERCFYTRKDVRRH [D9R]: the protein stability index stood at 2.92. As for TKEKKHQCYHCERCFYTRKDVRRH [D9Y], the protein stability index came to 2.46. As for TKEKKHQCIHCERCFYTRKDVRRH [D9I], the protein stability index came out at 2.53.

Turning to TKEKKHQCEHCERCFYTRKDVRRH [D9E], the protein stability index was found to be 3.32.

Regarding TKEKKHQCAHCERCFYTRKDVRRH [D9A], the protein stability index was determined as 2.67. Regarding TKEKKHQCSHCERCFYTRKDVRRH [D9S], the protein stability index worked out at 3.14. Take TKEKKHQCHHCERCFYTRKDVRRH [D9H]: the protein stability index was determined as 3.02. On to TKEKKHQCMHCERCFYTRKDVRRH [D9M], for which the protein stability index is 3.5. Take TKEKKHQCCHCERCFYTRKDVRRH [D9C]: the protein stability index was determined as 3.14. Consider TKEKKHQCQHCERCFYTRKDVRRH [D9Q], for which the protein stability index stood at 3. The same measure for TKEKKHQCWHCERCFYTRKDVRRH [D9W]: 2.84; for TKEKKHQCNHCERCFYTRKDVRRH [D9N]: 4.02. Turning to TKEKKHQCVHCERCFYTRKDVRRH [D9V], the protein stability index was 2.47. In the case of TKEKKHQCLHCERCFYTRKDVRRH [D9L], the protein stability index came out at 2.98.

Regarding TKEKKHQCKHCERCFYTRKDVRRH [D9K], the protein stability index was 3.24.

TKEKKHQCTHCERCFYTRKDVRRH [D9T]: the protein stability index was found to be 2.92. The same measure for TKEKKHQCFHCERCFYTRKDVRRH [D9F]: 2.31; for TKEKKWQCDHCERCFYTRKDVRRH [H6W]: 2.51. As to TKEKKSQCDHCERCFYTRKDVRRH [H6S], the protein stability index worked out at 2.88. For TKEKKKQCDHCERCFYTRKDVRRH [H6K], the protein stability index came to 3.19. With TKEKKAQCDHCERCFYTRKDVRRH [H6A], the protein stability index is 2.39. The figure for TKEKKFQCDHCERCFYTRKDVRRH [H6F] is 3.01. Take TKEKKRQCDHCERCFYTRKDVRRH [H6R]: the protein stability index worked out at 2.95. Take TKEKKEQCDHCERCFYTRKDVRRH [H6E]: the protein stability index worked out at 3.55. The same measure for TKEKKIQCDHCERCFYTRKDVRRH [H6I]: 2.94; for TKEKKYQCDHCERCFYTRKDVRRH [H6Y]: 3.43; for TKEKKVQCDHCERCFYTRKDVRRH [H6V]: 2.67. Regarding TKEKKGQCDHCERCFYTRKDVRRH [H6G], the protein stability index came to 2.88. The figure for TKEKKCQCDHCERCFYTRKDVRRH [H6C] is 3.7. For TKEKKTQCDHCERCFYTRKDVRRH [H6T], the protein stability index is 2.86. On to TKEKKNQCDHCERCFYTRKDVRRH [H6N], for which the protein stability index is 3.33. For the variant TKEKKLQCDHCERCFYTRKDVRRH [H6L], the protein stability index was found to be 2.5.

On to TKEKKMQCDHCERCFYTRKDVRRH [H6M], for which the protein stability index amounted to 2.7. Turning to TKEKKDQCDHCERCFYTRKDVRRH [H6D], the protein stability index is 2.91. Take TKEKKPQCDHCERCFYTRKDVRRH [H6P]: the protein stability index amounted to 2.94. For the variant TKEKKQQCDHCERCFYTRKDVRRH [H6Q], the protein stability index came out at 3.08.

With TKEKPHQCDHCERCFYTRKDVRRH [K5P], the protein stability index was determined as 3.67.

On to TKEKSHQCDHCERCFYTRKDVRRH [K5S], for which the protein stability index came out at 3.46. With TKEKYHQCDHCERCFYTRKDVRRH [K5Y], the protein stability index was 3.19.

For TKEKWHQCDHCERCFYTRKDVRRH [K5W], the protein stability index worked out at 3.06. As for TKEKQHQCDHCERCFYTRKDVRRH [K5Q], the protein stability index was determined as 3.67.

With TKEKMHQCDHCERCFYTRKDVRRH [K5M], the protein stability index is 3.81. On to TKEKAHQCDHCERCFYTRKDVRRH [K5A], for which the protein stability index was found to be 3.78.

As for TKEKFHQCDHCERCFYTRKDVRRH [K5F], the protein stability index was found to be 3.22.

TKEKIHQCDHCERCFYTRKDVRRH [K5I]: the protein stability index came out at 3.13.

Take TKEKHHQCDHCERCFYTRKDVRRH [K5H]: the protein stability index is 3.82. Turning to TKEKRHQCDHCERCFYTRKDVRRH [K5R], the protein stability index stood at 3.75. On to TKEKVHQCDHCERCFYTRKDVRRH [K5V], for which the protein stability index turned out to be 3.63. As to TKEKLHQCDHCERCFYTRKDVRRH [K5L], the protein stability index was 3.67. The figure for TKEKEHQCDHCERCFYTRKDVRRH [K5E] is 3.67; for TKEKCHQCDHCERCFYTRKDVRRH [K5C] it is 2.59; for TKEKDHQCDHCERCFYTRKDVRRH [K5D] it is 3.53. For the variant TKEKTHQCDHCERCFYTRKDVRRH [K5T], the protein stability index is 3.22.

As to TKEKGHQCDHCERCFYTRKDVRRH [K5G], the protein stability index was 3.04. Turning to TKEKNHQCDHCERCFYTRKDVRRH [K5N], the protein stability index came out at 3.03. As to TKEKKHQRDHCERCFYTRKDVRRH [C8R], the protein stability index is 3.42. The same measure for TKEKKHQWDHCERCFYTRKDVRRH [C8W]: 2.75; for TKEKKHQNDHCERCFYTRKDVRRH [C8N]: 3.29; for TKEKKHQYDHCERCFYTRKDVRRH [C8Y]: 2.78. As for TKEKKHQVDHCERCFYTRKDVRRH [C8V], the protein stability index worked out at 3.12. TKEKKHQHDHCERCFYTRKDVRRH [C8H]: the protein stability index turned out to be 3.25. Consider TKEKKHQLDHCERCFYTRKDVRRH [C8L], for which the protein stability index turned out to be 3.56.

For TKEKKHQPDHCERCFYTRKDVRRH [C8P], the protein stability index worked out at 3.17.

With TKEKKHQKDHCERCFYTRKDVRRH [C8K], the protein stability index came out at 3.43. Regarding TKEKKHQEDHCERCFYTRKDVRRH [C8E], the protein stability index was found to be 3.84. Regarding TKEKKHQMDHCERCFYTRKDVRRH [C8M], the protein stability index came to 2.98. On to TKEKKHQQDHCERCFYTRKDVRRH [C8Q], for which the protein stability index came to 3.53. In the case of TKEKKHQIDHCERCFYTRKDVRRH [C8I], the protein stability index worked out at 3.1. For the variant TKEKKHQFDHCERCFYTRKDVRRH [C8F], the protein stability index is 2.6. Consider TKEKKHQGDHCERCFYTRKDVRRH [C8G], for which the protein stability index was determined as 3.02. The figure for TKEKKHQSDHCERCFYTRKDVRRH [C8S] is 3.48.

On to TKEKKHQADHCERCFYTRKDVRRH [C8A], for which the protein stability index stood at 3.53. As to TKEKKHQDDHCERCFYTRKDVRRH [C8D], the protein stability index turned out to be 3.61. As to TKEKKHQTDHCERCFYTRKDVRRH [C8T], the protein stability index came out at 3.24. In the case of TKTKKHQCDHCERCFYTRKDVRRH [E3T], the protein stability index is 3.32. For TKCKKHQCDHCERCFYTRKDVRRH [E3C], the protein stability index was 4.51.

As to TKDKKHQCDHCERCFYTRKDVRRH [E3D], the protein stability index came out at 3.49.

Regarding TKFKKHQCDHCERCFYTRKDVRRH [E3F], the protein stability index worked out at 3.29. Take TKQKKHQCDHCERCFYTRKDVRRH [E3Q]: the protein stability index was 3.35. Take TKMKKHQCDHCERCFYTRKDVRRH [E3M]: the protein stability index came out at 3.53. For TKVKKHQCDHCERCFYTRKDVRRH [E3V], the protein stability index is 3.28. Consider TKGKKHQCDHCERCFYTRKDVRRH [E3G], for which the protein stability index amounted to 3.45. As for TKPKKHQCDHCERCFYTRKDVRRH [E3P], the protein stability index worked out at 3.63.

On to TKNKKHQCDHCERCFYTRKDVRRH [E3N], for which the protein stability index was 3.59. As to TKKKKHQCDHCERCFYTRKDVRRH [E3K], the protein stability index is 3.5. Take TKIKKHQCDHCERCFYTRKDVRRH [E3I]: the protein stability index came out at 3.01. As to TKHKKHQCDHCERCFYTRKDVRRH [E3H], the protein stability index was 3.55.

For the variant TKRKKHQCDHCERCFYTRKDVRRH [E3R], the protein stability index came to 3.59. Turning to TKSKKHQCDHCERCFYTRKDVRRH [E3S], the protein stability index came out at 3.48. The figure for TKAKKHQCDHCERCFYTRKDVRRH [E3A] is 3.31; for TKYKKHQCDHCERCFYTRKDVRRH [E3Y] it is 3.12. Consider TKLKKHQCDHCERCFYTRKDVRRH [E3L], for which the protein stability index is 3.14. For the variant TKWKKHQCDHCERCFYTRKDVRRH [E3W], the protein stability index was found to be 2.73.
